Laboratory results published in patent US20190336427A1, “NOVEL PROTEIN TRANSDUCTION DOMAIN AND USE THEREOF” (BIOCELTRAN CO., LTD., priority 2016, published 2019).
Ends that are not written are not given here.

Key:
[1] = tested on: porcine skin; experiment: Skin penetration of cell-penetrating peptide-FGF2 mixture by tissue staining, Franz cells with porcine skin; type: in vitro ADME; conditions: 500 μg, 24 hours
Procedure: For skin penetration analysis of FGF2 through tissue staining, Franz cells using the porcine skin were treated with equal amounts (500 μg) of FGF2, PEP1-FGF2 and a STeP-FGF2 mixture. After 24 hours, the porcine skin between the Franz cells was taken out, washed with distilled water and subjected to tissue staining. The porcine skin site exposed to donor cells was cut and then immobilized in 10% buffered formalin to produce a paraffin block, and tissues were sectioned to 7 μm using a microtome. Then, the tissues were mounted on a slide, paraffin was removed, the residue was hydrated and tissue fragments were blocked for 30 minutes. The blocked tissues were treated with […] (cell signaling, green) and reacted at 4° C. for 18 hours. On the following day, the resulting tissues were washed with PBST, treated with an Alexa Fluor 488 secondary antibody at room temperature for 2 hours and washed with PBST again. Then, the tissue fragments were dyed with a solution of a nuclear staining reagent (DAPI) diluted at 1/5000 in PBS in the absence of light for 10 minutes and washed with PBS three times. The tissue fragments were mounted and then analyzed with a confocal scanning laser microscope.

[2] = tested on: HaCaT cells; experiment: Cytotoxicity of cell-penetrating peptides (WST, cell viability); conditions: HaCaT cells, 2.5, 5 and 10 μM peptide, 24 hours
Procedure: Cytotoxicity was evaluated to identify whether or not the peptides of the present invention could be harmlessly used to deliver polymers in vivo.
HaCaT cells cultured in DMEM containing 10% FBS were seeded in a unit dose of 2.5×10^4 on a 96-well plate, cultured for 24 hours and washed with HBSS twice. Cell-penetrating peptides, PEP1 and STeP, were dissolved at different concentrations of 50 μM, 100 μM and 200 μM in D.W. and diluted in a medium such that the final concentrations reached 2.5 μM, 5 μM and 10 μM, and the cells were treated with the resulting peptides and then reacted for 24 hours at 37° C. in a 5% CO2 incubator. After culture, the supernatant was removed, a WST solution was diluted in a medium in a ratio of 1:9 and the cells were treated with the medium. After culturing for 3 hours, absorbance was measured at 450 nm, and cell viability was calculated for cells of a peptide non-treatment group and cells of a peptide treatment group.

[3] = biological target: EGF receptors in cells (mouse fibroblasts, Balb/c 3T3 clone A31 cells) (mouse) (UniProt Q01279); experiment: cell-based or functional assay
[4] = tested on: porcine skin; experiment: Skin penetration of cell-penetrating peptide-FITC mixture, Franz cells with porcine skin; type: in vitro ADME; conditions: 100 μM mixture, FITC:peptide molar ratio 1:0 and 1:2
Procedure: Franz cells (diameter of 9 mm) were used in order to identify whether or not penetration of FITC into the skin as well as cells was improved under the condition of non-covalent bonding to STeP.
FITC and cell-penetrating peptides (PEP1, STeP) dissolved in borax buffer (pH 8.0) were prepared. The FITC and cell-penetrating peptides (PEP1, STeP) were mixed in a molar ratio of 1:0 and 1:2, and reacted at 37° C. for 30 minutes, and the top of Franz cells were treated with 100 μM of the finally obtained cell-penetrating peptide-FITC mixture. The porcine skin was isolated and washed with PBS three times. After washing, the cryo mold was treated with an OCT embedding matrix (Cell Path Ltd., UK) and tissues were frozen at −70° C. The frozen tissues were cross-sectioned to a thickness of 7 μm at −20° C. using a cryotome (HM520, Germany) to produce fragment slides. To dye the nucleus of the skin cells, tissue fragments fixed to a slide glass were dyed with a solution of a nuclear staining reagent (DAPI) diluted at 1/5000 in PBS in the absence of light for 10 minutes and washed with PBS three times. The resulting cells were mounted and then analyzed with a confocal scanning laser microscope.

FGF2: fibroblast growth factor-2, basic fibroblast growth factor
skin penetration of FGF2 (delivery into porcine skin tissues) [1]: not delivered into porcine skin tissues at all

KETWWETWWTEWSQPYGRKKRRQRRRC [STeP]
cytotoxicity (cell viability) [2]: did not exhibit cytotoxicity

PEP1-EGF recombinant protein (from UniProt P01133 23-1207) (ligand)
Cell proliferation activity (unit/mM), WST assay on Balb/c 3T3 clone A31 cells [3]: 1.39e+07 unit/mM

fluorescein isothiocyanate [FITC]
skin penetration of FITC [4]: present in the cornified layer of the porcine skin
